In patent US20230365684A1:

Key:
[1] = biological target: human CD33 on cells (MOLM-13, Kasumi-1, OCI-AML-3, Kasumi-3) (human) (UniProt P20138); test: flow cytometry on MOLM-13 cells, 4 °C, serial dilutions of the antibody
[2] = biological target: human CD33 on cells (MOLM-13, Kasumi-1, OCI-AML-3, Kasumi-3) (human) (UniProt P20138); test: flow cytometry on OCI-AML-3 cells, 4 °C, serial dilutions of the antibody
[3] = biological target: human CD33 on cells (MOLM-13, Kasumi-1, OCI-AML-3, Kasumi-3) (human) (UniProt P20138); test: flow cytometry on Kasumi-1 cells, 4 °C, serial dilutions of the antibody
[4] = biological target: human CD33 on cells (MOLM-13, Kasumi-1, OCI-AML-3, Kasumi-3) (human) (UniProt P20138); test: flow cytometry on MOLM-13 cells, 4 °C, detection with PE goat F(ab')2 anti-human IgG-Fc

human CD33 on cells (MOLM-13, Kasumi-1, OCI-AML-3, Kasumi-3) (human), sequence (P20138 18-364): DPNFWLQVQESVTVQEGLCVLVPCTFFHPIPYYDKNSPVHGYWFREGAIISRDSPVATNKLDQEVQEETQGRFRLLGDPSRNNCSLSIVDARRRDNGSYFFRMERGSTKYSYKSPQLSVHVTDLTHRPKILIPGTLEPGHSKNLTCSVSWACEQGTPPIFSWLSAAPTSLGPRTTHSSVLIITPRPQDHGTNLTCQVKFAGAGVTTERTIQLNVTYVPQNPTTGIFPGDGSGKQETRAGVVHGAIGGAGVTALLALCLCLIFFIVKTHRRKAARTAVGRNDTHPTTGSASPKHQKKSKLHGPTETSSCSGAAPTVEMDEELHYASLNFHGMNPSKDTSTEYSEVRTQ

B1: Lintuzumab (antibody, part only; not given: constant regions, V domains shown, not shown: another chain or arm of the molecule)
VH: QVQLVQSGAEVKKPGSSVKVSCKASGYTFTDYNMHWVRQAPGQGLEWIGYIYPYNGGTGYNQKFKSKATITADESTNTAYMELSSLRSEDTAVYYCARGRPAMDYWGQGTLVTVSS
VL: DIQMTQSPSSLSASVGDRVTITCRASESVDNYGISFMNWFQQKPGKAPKLLIYAASNQGSGVPSRFSGSGSGTDFTLTISSLQPDDFATYYCQQSKEVPWTFGQGTKVEIK
B1 was tested, and the EC50 [1] was 0.31 nM, the EC50 [2] was 0.9 nM and the EC50 [3] was 0.34 nM. It also gave an EC50 (read off the curve) [4] of 0.04 µg/mL.
